{
  "source": "paper PMC10708393",
  "about": "“The Fabrication of a Probe-Integrated Electrochemiluminescence Aptasensor Based on Double-Layered Nanochannel Array with Opposite Charges for the Sensitive Determination of C-Reactive Protein”",
  "key": {"[1]": {"target": "T1, C-reactive protein (CRP) (UniProt P02741 19-224)", "T1 sequence": "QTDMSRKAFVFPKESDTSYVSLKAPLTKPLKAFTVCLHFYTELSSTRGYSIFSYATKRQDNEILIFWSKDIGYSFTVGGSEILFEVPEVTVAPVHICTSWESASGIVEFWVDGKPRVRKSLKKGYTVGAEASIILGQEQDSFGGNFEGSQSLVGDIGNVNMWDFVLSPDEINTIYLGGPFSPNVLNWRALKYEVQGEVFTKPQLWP", "assay": "electrochemiluminescence aptasensor; linear response 0.01-1000 ng/mL, LOD 8.5 pg/mL; immobilized aptamer; CRP incubation 4 °C, 1 h on BSA-blocked aptamer electrode; wash 0.01 M PBS pH 7.4; ECL read in 3 mM TPA, 0.01 M PBS pH 7.4, room temperature", "settings": "protein: commercial; chain copies: 5"}, "[2]": {"target": "carbohydrate antigen 15-3 (CA15-3) (UniProt P15941 24-1097)", "sequence (P15941 24-1097)": "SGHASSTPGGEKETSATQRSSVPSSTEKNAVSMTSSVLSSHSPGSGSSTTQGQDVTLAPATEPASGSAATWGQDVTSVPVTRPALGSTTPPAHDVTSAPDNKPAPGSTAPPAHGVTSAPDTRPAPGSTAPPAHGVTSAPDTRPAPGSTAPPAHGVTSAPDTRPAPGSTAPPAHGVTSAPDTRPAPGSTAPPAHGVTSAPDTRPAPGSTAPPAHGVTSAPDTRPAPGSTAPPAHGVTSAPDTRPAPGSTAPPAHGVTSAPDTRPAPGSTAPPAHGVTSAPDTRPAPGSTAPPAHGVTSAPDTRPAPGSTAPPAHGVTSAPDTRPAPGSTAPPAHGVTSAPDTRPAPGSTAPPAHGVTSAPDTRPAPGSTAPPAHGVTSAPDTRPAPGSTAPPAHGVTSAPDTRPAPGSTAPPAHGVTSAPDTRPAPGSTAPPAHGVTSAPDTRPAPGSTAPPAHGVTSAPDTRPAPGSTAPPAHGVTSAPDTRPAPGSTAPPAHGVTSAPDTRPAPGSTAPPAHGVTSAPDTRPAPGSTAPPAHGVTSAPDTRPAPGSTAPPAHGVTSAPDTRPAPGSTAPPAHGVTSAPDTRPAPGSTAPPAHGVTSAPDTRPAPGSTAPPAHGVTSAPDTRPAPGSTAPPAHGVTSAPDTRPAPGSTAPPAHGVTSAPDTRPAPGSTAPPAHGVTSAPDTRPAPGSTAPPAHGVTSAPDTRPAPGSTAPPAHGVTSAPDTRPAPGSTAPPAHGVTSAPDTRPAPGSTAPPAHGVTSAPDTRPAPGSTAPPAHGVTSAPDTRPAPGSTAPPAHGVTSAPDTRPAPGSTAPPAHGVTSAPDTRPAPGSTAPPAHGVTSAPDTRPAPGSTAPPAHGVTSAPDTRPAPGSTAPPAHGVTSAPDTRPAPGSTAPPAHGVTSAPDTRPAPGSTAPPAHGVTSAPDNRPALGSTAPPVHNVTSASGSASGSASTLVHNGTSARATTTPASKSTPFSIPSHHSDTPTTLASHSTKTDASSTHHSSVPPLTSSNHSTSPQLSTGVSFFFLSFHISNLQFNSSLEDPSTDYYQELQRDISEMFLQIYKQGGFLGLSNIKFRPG", "assay": "electrochemiluminescence aptasensor; selectivity test; no significant ECL decrease; CRP incubation 4 °C, 1 h on BSA-blocked aptamer electrode; wash 0.01 M PBS pH 7.4; ECL read in 3 mM TPA, 0.01 M PBS pH 7.4, room temperature", "settings": "protein: commercial"}, "[3]": {"target": "carcinoembryonic antigen (CEA) (UniProt P06731 35-685)", "sequence (P06731 35-685)": "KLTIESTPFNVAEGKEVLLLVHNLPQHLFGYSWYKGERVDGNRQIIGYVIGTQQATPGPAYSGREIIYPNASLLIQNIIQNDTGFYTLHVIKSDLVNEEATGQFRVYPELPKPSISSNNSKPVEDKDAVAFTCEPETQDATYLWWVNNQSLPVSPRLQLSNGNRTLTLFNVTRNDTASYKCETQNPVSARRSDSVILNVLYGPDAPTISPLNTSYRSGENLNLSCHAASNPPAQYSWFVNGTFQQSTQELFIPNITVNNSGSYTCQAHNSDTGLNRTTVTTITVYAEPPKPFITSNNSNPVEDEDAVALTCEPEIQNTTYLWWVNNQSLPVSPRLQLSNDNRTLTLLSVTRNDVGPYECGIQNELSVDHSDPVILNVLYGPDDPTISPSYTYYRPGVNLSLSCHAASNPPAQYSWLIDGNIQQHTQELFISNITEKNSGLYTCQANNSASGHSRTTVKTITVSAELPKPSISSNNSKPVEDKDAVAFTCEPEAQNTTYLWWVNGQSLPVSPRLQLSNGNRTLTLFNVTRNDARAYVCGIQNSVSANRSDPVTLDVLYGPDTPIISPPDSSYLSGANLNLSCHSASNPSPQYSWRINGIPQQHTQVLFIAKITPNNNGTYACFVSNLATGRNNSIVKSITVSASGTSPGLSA", "assay": "electrochemiluminescence aptasensor; selectivity test; no significant ECL decrease; CRP incubation 4 °C, 1 h on BSA-blocked aptamer electrode; wash 0.01 M PBS pH 7.4; ECL read in 3 mM TPA, 0.01 M PBS pH 7.4, room temperature", "settings": "protein: commercial"}},
  "data": [
    {"binder": "CGAAGGGGATTCGAGGGGTGATTGCGTGCTCCATTTGGTG (ssDNA, 5'-NH2)", "note": "[CRP aptamer]", "values": [
      {"measurement": "binding result", "setting": "[1]", "result": "binds"},
      {"measurement": "binding result", "setting": "[2]", "result": "no binding"},
      {"measurement": "binding result", "setting": "[3]", "result": "no binding"}
    ]}
  ]
}
